Experimental findings from paper PMC11023358 are described below.

This assay concerns the target H2A.Z variant containing recombinant nucleosomes (UniProt P0C0S5). The assay can be described thus: pull-down; nucleosomes (2.5 μg) pre-bound to Dynabeads M-280 streptavidin; CFDP1 protein (10 μm) added; 4 h at 4°C; 20 mM Hepes pH 8.0, 150 mM NaCl, 0.2 mM EDTA, 20% glycerol, 0.1% NP40, 1 mM DTT; wash with 200 mM NaCl; immunoblot, normalized to H4. In general terms: In western blotting, separated proteins are transferred to a membrane and probed.

For “HIS tagged full-length CFDP1 protein (mouse craniofacial development protein 1) (from UniProt O88271 1-295) (natural protein)”, the fold binding over H2A canonical nucleosomes (normalized to H4 levels) was 3.3 fold.
